In patent US20120238038, “PEPTIDE BINDING TO METHYLATED DNA” (published 2012):

Target: peptide F (two-zinc-finger peptide, X = phenylalanine) (Artificial Sequence)
Test: EMSA; 100 uM ZnCl2, 100 mM NaCl, 4 C
Conditions: protein: synthetic; tags: none; chemically synthesized (Fmoc SPPS), C-terminal amide; label: 5'-32P on G chain
Experimental: These bands obtained on the gel were quantified using Image Gauge software (FUJIFILM Corporation, ver. 4.01). The ratio of DNA bound to the peptide ([bound]/[bound]+[free]) was calculated from the band intensity at each peptide concentration; using this and the concentration of the peptide, the dissociation constant between the peptide and the DNA was calculated from the calculation equation (2) below.

peptide F (two-zinc-finger peptide, X = phenylalanine) (Artificial Sequence), sequence (chain, as listed by the source): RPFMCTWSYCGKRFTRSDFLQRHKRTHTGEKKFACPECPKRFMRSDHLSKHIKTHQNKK

Binder	Kd
methylated target DNA (dsDNA, 5mC at position 5 of G chain and position 6 of C chain) DNA 1: GGGGCGGGGCC DNA 2: GGCCCCGCCCC	5.58 µM
unmethylated target DNA (dsDNA) DNA 1: GGGGCGGGGCC DNA 2: GGCCCCGCCCC	2.1 µM
